# Test results as given in the RNAGym collection of RNA variant scans (doi:10.1073/pnas.2313332121).
# B1: TPR t1 (parent)
# chain: GACCAAUCUGCCCUCAGAGCUCGAGAACAUCUUCGGAUGCAGAGGAGGCAGGCUUCGGUGGCGCGAUAGCGCCAACGUCCUCAACCUCCAAUGCAUCCCACCACAUGAUGAUGCCUGAAGAGCCUUGGUUUUUUG
# Variants of: B1
# Assay: polymerase ribozyme fitness, log enrichment relative to wild type (log ratio); higher = more active; in vitro selection for triplet polymerase activity
# In short: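 For each subunit of a heterodimeric triplet polymerase ribozyme, a mutant library was built by PCR and transcribed, then taken through a single in vitro selection round in triplicate. Selection involved annealing to a biotinylated primer, the partner subunit and triplets, incubation frozen at −7 °C, gel excision of extended constructs, capture on streptavidin beads and RT-PCR. Genotypes were retained after Illumina sequencing of inputs and outputs only with ≥10 input reads and ≥1 read in each output. Fitness is defined as the logarithm of a genotype's enrichment relative to wild-type enrichment, using inverse-variance-weighted averages across replicates, with the logarithm taken to base 2.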
row,Variant,polymerase ribozyme fitness (log ratio)
1,A5G C88G,-1.27
2,U78G C82G C99A U112G G128U,-6.81
3,C3A A5G C12A G63U A68G C115G G122A U130G,-6.94
4,U7C C62A C99G U112G U132C U134A G135U,-7.59
5,A46G G61C G69U C97A A111U,-5.77
6,C85G U133G,-2.39
7,G71U U112A,1.49
8,G52C C56G G71U,-3.4
9,C12G C56U,-0.0119
10,G10A U112G,1.07
11,C13A A50U,-3.1
12,A50G A75U C80U U81A C114U U133C,-4.62
13,A37U C56G C114A,-1.64
14,C28G A46U,-3.8
15,A46C C72G G135U,-2.4
16,C89U C97G,-5.4
17,C15A C73U,-2.31
18,A5C U55G,-0.672
19,G63A A90C,-2.84
20,U7G G65A,-4.77
21,A6G A16G G17U A18G G47A G61U,-3.02
22,A5G G51A C86G,-2.82
23,C12G C70G C85A,-3.7
24,A41C C70U G71C G117U C123A G128A,-6.8

row,Variant,polymerase ribozyme fitness (log ratio)
1,G61A G93A C97A G120U U133C,-6.04
2,G60U C115U,-0.124
3,C11G C31G,-4.32
4,A6G A18U C40G G42U U81C,-4.14
5,C86A U112C,-0.51
6,U54C C72U C82U A83C C115G G117A U129C,-4.96
7,C72U C86U G117A,-2.26
8,C11G C86G,-1.7
9,C11A A50G U126A,-3.95
10,U7C C62U C99G U112G U132C U134A G135U,-6.65
11,C73A C104A A108G U112A A118G G122U,-5.56
12,A50U C76G,-1.31
13,C49U G71A,-1.46
14,G60C C97A,-4.44
15,G17A C40G G60A A83C A84C A121C,-3.61
16,A29G C76A G120U,-1.97
17,C102U G128C U129A,-4.82
18,G10U C20A C40U A46G C62U C82U C114A,-3.36
19,G61U U87A,-0.452
20,U33A G45A G63C,-5.54
21,G48A G110A,-1.6
22,G51U C53U G61U U130A,-3.08
23,U9G C62G C82A,-0.591
24,U7C A18U C53U G60U G61U,-4.77

row,Variant,polymerase ribozyme fitness (log ratio)
1,G17U G117C,-5.24
2,A6G U112A U125G U129A,-1.7
3,U32A C34G,-6.88
4,C40G C94A,-2.65
5,G35U C79A,-6.66
6,C49A C72A C73U C97G C123A,-5.81
7,C8U G52A A68G U81A G120U,-4.33
8,G48A G61C,-1.66
9,U38A U96A,-1.13
10,C13A G48A,-2.23
11,C76A,-0.611
12,C114U C124A,-1.04
13,A46U C73G,-2.11
14,C40A G71C C101A U131C,-3.67
15,G69U G110A A118C,0.45
16,G47U C72U U87C C98G U112A,-7.3
17,U55C A105G C123G,-0.655
18,C11A C12G C70A A111C,-3.93
19,C11G C73G,-0.268
20,C64G G77A A111G U116C,-6.18
21,C3A G23C C40A A84C G110C,-5.53
22,C70G A121G U131A,-0.0344
23,C20U G52C C72U,-2.41
24,G39C A50C C56G G71A G77A A90U U96A,-4.32

row,Variant,polymerase ribozyme fitness (log ratio)
1,C13U G71U U78C,0.0986
2,G42U G52U U54A A111C G122A,-5.42
3,A37C C70A C72U G120U,-1.56
4,A46C G113A G128A,-4.59
5,A6U A26G G52A G71U,-3.21
6,C11G G45U G51C G61A,-3.84
7,G42C U54G,-1.44
8,A5G G45A G69U C104A,-1.05
9,C34A G127C,-3.8
10,G10A G69U C79U C98A,-2
11,G44A C56A,-1.33
12,A2C C12G G42U C49A C73A C82U A111C,-5.3
13,G51U U106G G110U C124A,-6.4
14,G19A A43U C49U U59A C124U,-1.73
15,U54C C86G C88A C101U U129C,-3.66
16,G39U C64U A84C G122A C124A,0.97
17,C15U C88G A103C C115G,-6.98
18,C11G C73U C85A A111G,-0.304
19,U38G G52C U55G A74U,-2.31
20,C11G A27G G63C G93A,-3.72
21,A2U U32G G60U G69A U92A C114A U116A C124G,-6.22
22,C3U C8G G45U U54A C72U U87C U130A,-1.62
23,G48A C49U G61U U78A G122A U126A,-3.77
24,A43U G110U,-3.52

row,Variant,polymerase ribozyme fitness (log ratio)
1,C20G C53U,-3.06
2,C13A G19U C82A U87G G120A,-3.21
3,G19A G71C C124A,-2.56
4,A16G C94A A95U,-4.15
5,U9G C72A A95G,0.389
6,A16G A27G U32C A50G,-4.47
7,G36C G44C C73U G110C C124U U125A,-4.74
8,C31U A46U C85U,-7.42
9,A84G G127C,-2
10,A2C C49A U87A C88A,-3.11
11,C11U A37G U96G,-2.69
12,C13G C85G C86A,-3.16
13,A90C U112A,-1.21
14,G45A C64G A68C C104A G117U,-6.22
15,G60A A90G U96C C101G,-1.58
16,G52A G93A U130G,-1.22
17,A24U A43C G60C A84U G110C U129A,-6.86
18,C4A G69C,-3.61
19,G19A G71A,-3.99
20,U9G C94A U125G,-1.1
21,A50U C62U C70G G117U G120A,-6.48
22,C12U U32C G69U C76G G77U C80U A84G,-4.98
23,C72A C86U A108U,-5.12
24,C40G G52A A118U,-0.83

row,Variant,polymerase ribozyme fitness (log ratio)
1,C115A G127A,-0.375
2,C56U C94U,0.204
3,U38G A105C U112A G122C,-5.07
4,C22A G57C C102A,-5.72
5,G45U A90C A105G U106A U130G U131A,-2.74
6,A27U A29C,-4.78
7,C13G G47U C114A,-4.31
8,G19A G71C C115U G128U,-5.92
9,C12U A18C C62U,-2.39
10,C15A C53A G77A C101G G120A C124A,-1.12
11,C11G C73U C80U,-0.636
12,C53U G120A U130A,0.491
13,G47C A66U A119U A121U,-0.0171
14,G48C G93A A105C,-4.64
15,G10U A103G,-6.29
16,C34G U112A,-4.47
17,U112A U126A,1.04
18,C49A C72G C89G G113U,-5.04
19,G25C,-5.94
20,U7C G57U,0.0649
21,G58A G60C,-0.284
22,G58C A83C,0.207
23,C34U A74U,-4.36
24,G44U G58C,-0.197

row,Variant,polymerase ribozyme fitness (log ratio)
1,U21A G45U,-1.28
2,U9G C34G A121U,-4.18
3,G71A G127C,-1.54
4,A2G C40U U78A C86U G117A,-3.78
5,G19U C20U U106C,-2.36
6,C72U G122U,0.145
7,U78G C86U,-0.465
8,C11U C15A A26G C53G G63U G120C,-4.53
9,G47C C56U U106A C123A,-1.35
10,C8U C15A G69A C73A C102U C123A,-5.63
11,G58A A103G,-4.88
12,C4U C8G U33G C85G C94U,-6
13,C70A U106C U129A,-2.95
14,U38G G42C A43U G71C C82U C115U,-4.36
15,U109G G113A G127C,-6.26
16,U9G G42U G45C U92G U129A,-6.64
17,U32G C70G C98G,-6.14
18,G63U U96C,-1.31
19,C8G U78C A105C,-2.32
20,C13G C82U,-2.11
21,A46G G120C G128C,-2.6
22,C79A U112A G128U,-3.42
23,A46U A84U,-1.28
